Results as given in the supplement of paper PMC7877785.
± gives the uncertainty stated by the source.

Assay: self-splicing fitness, log relative to wild type (ln ratio); higher = more splicing; Tetrahymena group I intron in knt gene, E. coli kanamycin selection, DiMSum; sequences stand for … in CUCUCU…GGAGGGAAAAGUUAUCAGGCAUGCACCUGGUAGCUAGUCUUUAAACCAAUAGAUUGCAUCGGUUUAAAAGGCAAGACCGUCAAAUUGCGGGAAAGGGGUCAACAGCCGUUCAGUACCAAGUCUCAGGGGAAACUUUGAGAUGGCCUUGCAAAGGGUAUGGUAAUAAGCUGACGGACAUGGUCCUAACCACGCAGCCAAGUCCUAAGUCAACAGAUCUUCUGUUGAUAUGGAUGCAGUUCACAGACUAAAUGUCGGUCGGGGAAGAUGUAUUCUUCUCAUAAGAUAUAGUCGGACCUCUCCUUAAUGGGAGCUAGCGGAUGAAGUGAUGCAACACUGGAGCCGCUGGGAACUAAUUUGUAUGCGAAAGUAUAUUGAUUAGUUUUGGAGUACUCGUGGUCG
In short: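 Six replicate transformations of E. coli BL21(DE3) with a pET-22b(+) library were grown overnight at 37°C or 30°C. The library randomised all eight P1ex-region intron nucleotides, the intron lying in the knt kanamycin-resistance gene, and plates were LB agar with or without 25 μg/mL kanamycin plus 100 μg/mL carbenicillin, 50 μM IPTG and 0.2% rhamnose. Pooled colonies were amplicon-sequenced on an Illumina HiSeq 2500, and fitness is the DiMSum error-weighted combination of wild-type-normalised replicate fold changes, kanamycin versus none.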

| Sequence | self-splicing fitness (ln) (30 °C) | self-splicing fitness (ln) (37 °C) |
| --- | --- | --- |
| UACAAGCAAUAUUACGGUUA | -0.0426 ± 0.052 | -0.221 ± 0.063 |
| UACAAGCAAUAUUACGUCGG | -2.46 ± 0.082 | -0.921 ± 0.088 |
| UACAAGCAAUAUUACGUGUU | -2.85 ± 0.081 | -1.58 ± 0.11 |
| UACAAGCAAUAUUACGUUGC | -4.71 ± 0.42 | -2.94 ± 0.27 |
| UACAAGCAAUAUUACGUUUC | -2.55 ± 0.2 | -1.72 ± 0.2 |
| UACCAGCAAUAUUACGACUG | -4.48 ± 0.39 | -3.05 ± 0.25 |
| UACCAGCAAUAUUACGAGAG | -2.64 ± 0.12 | -1.12 ± 0.081 |
| UACCAGCAAUAUUACGAGAU | -3.69 ± 0.21 | -3.25 ± 0.13 |
| UACCAGCAAUAUUACGAGUA | -1.25 ± 0.085 | -1.69 ± 0.08 |
| UACCAGCAAUAUUACGAUCA | -0.119 ± 0.07 | -0.323 ± 0.09 |
| UACCAGCAAUAUUACGAUGA | -0.0346 ± 0.056 | -0.119 ± 0.065 |
| UACCAGCAAUAUUACGAUGG | -3.01 ± 0.11 | -1.25 ± 0.091 |
| UACCAGCAAUAUUACGCAGA | -1.24 ± 0.11 | -0.165 ± 0.11 |
| UACCAGCAAUAUUACGCAGC | -2.72 ± 0.18 | -1.87 ± 0.23 |
| UACCAGCAAUAUUACGCCGU | -1.4 ± 0.14 | -1.6 ± 0.23 |
| UACCAGCAAUAUUACGCUUG | -1.01 ± 0.073 | -0.79 ± 0.095 |
| UACCAGCAAUAUUACGGACC | -0.962 ± 0.071 | -0.872 ± 0.086 |
| UACCAGCAAUAUUACGGAUG | -0.756 ± 0.055 | 0.494 ± 0.085 |
| UACCAGCAAUAUUACGGCCA | -0.369 ± 0.073 | -0.0799 ± 0.097 |
| UACCAGCAAUAUUACGGGAC | -3.46 ± 0.19 | -2.31 ± 0.2 |
| UACCAGCAAUAUUACGGGUU | -2.21 ± 0.085 | -1.46 ± 0.1 |
| UACCAGCAAUAUUACGUAAC | -2.64 ± 0.13 | -2.18 ± 0.2 |
| UACCAGCAAUAUUACGUAGG | -3.19 ± 0.2 | -2.74 ± 0.24 |
| UACCAGCAAUAUUACGUCCC | -1.47 ± 0.35 | -1.38 ± 0.38 |
| UACCAGCAAUAUUACGUCUA | 0.0647 ± 0.067 | 0.41 ± 0.086 |
| UACCAGCAAUAUUACGUCUC | -2.4 ± 0.14 | -2.26 ± 0.18 |

| Sequence | self-splicing fitness (ln) (30 °C) | self-splicing fitness (ln) (37 °C) |
| --- | --- | --- |
| UACCAGCAAUAUUACGUUCA | -0.401 ± 0.06 | 0.27 ± 0.08 |
| UACCAGCAAUAUUACGUUUG | -3.36 ± 0.12 | -2.43 ± 0.13 |
| UACCAGCAAUAUUACGUUUU | -1.51 ± 0.094 | -2.37 ± 0.15 |
| UACGAGCAAUAUUACGAAAC | -2.05 ± 0.48 | – |
| UACGAGCAAUAUUACGAACG | -2.96 ± 0.26 | -2.05 ± 0.16 |
| UACGAGCAAUAUUACGACUA | -0.65 ± 0.085 | -0.167 ± 0.1 |
| UACGAGCAAUAUUACGACUG | -0.684 ± 0.24 | -1.35 ± 0.17 |
| UACGAGCAAUAUUACGAUAA | -2.9 ± 0.16 | -2.05 ± 0.16 |
| UACGAGCAAUAUUACGAUUG | -3.62 ± 0.25 | -0.584 ± 0.2 |
| UACGAGCAAUAUUACGCAGC | -3.16 ± 0.34 | -3.83 ± 0.46 |
| UACGAGCAAUAUUACGCGAA | -2.89 ± 0.32 | -2.72 ± 0.26 |
| UACGAGCAAUAUUACGCUCA | -1.46 ± 0.15 | -0.952 ± 0.2 |
| UACGAGCAAUAUUACGGAAG | -3.5 ± 0.24 | -2.26 ± 0.37 |
| UACGAGCAAUAUUACGGACU | -2.36 ± 0.23 | – |
| UACGAGCAAUAUUACGGGAA | -1.91 ± 0.2 | -2.85 ± 0.4 |
| UACGAGCAAUAUUACGGGGG | -4.08 ± 0.29 | -3.14 ± 0.34 |
| UACGAGCAAUAUUACGGGGU | -3.05 ± 0.14 | -2.28 ± 0.14 |
| UACGAGCAAUAUUACGGUAG | -2.97 ± 0.14 | -2.35 ± 0.17 |
| UACGAGCAAUAUUACGGUAU | -3.12 ± 0.26 | -3.28 ± 0.3 |
| UACGAGCAAUAUUACGUCUG | -1.51 ± 0.1 | -1.34 ± 0.11 |
| UACGAGCAAUAUUACGUGCU | -3.9 ± 0.23 | -2.4 ± 0.19 |
| UACGAGCAAUAUUACGUGGU | -2.86 ± 0.15 | -1.87 ± 0.23 |
| UACGAGCAAUAUUACGUGUC | -3.32 ± 0.17 | -2.83 ± 0.28 |
| UACGAGCAAUAUUACGUUAG | -3.03 ± 0.17 | -2.32 ± 0.19 |
| UACGAGCAAUAUUACGUUCC | -2.83 ± 0.36 | – |
| UACGAGCAAUAUUACGUUGA | -3.2 ± 0.24 | -2.73 ± 0.23 |

| Sequence | self-splicing fitness (ln) (30 °C) | self-splicing fitness (ln) (37 °C) |
| --- | --- | --- |
| UACUAGCAAUAUUACGACAG | -1.04 ± 0.1 | -0.806 ± 0.13 |
| UACUAGCAAUAUUACGACUA | 0.113 ± 0.097 | 0.792 ± 0.11 |
| UACUAGCAAUAUUACGAGGC | -3.01 ± 0.17 | -2.27 ± 0.23 |
| UACUAGCAAUAUUACGAUGU | -3.42 ± 0.27 | -1.74 ± 0.22 |
| UACUAGCAAUAUUACGCCGG | -1.68 ± 0.18 | -0.8 ± 0.17 |
| UACUAGCAAUAUUACGCGAC | -2.29 ± 0.25 | -2.29 ± 0.3 |
| UACUAGCAAUAUUACGCGCG | -0.375 ± 0.12 | -0.0222 ± 0.12 |
| UACUAGCAAUAUUACGCUGA | -2.48 ± 0.16 | -1.37 ± 0.15 |
| UACUAGCAAUAUUACGCUUC | -2.88 ± 0.17 | -1.66 ± 0.26 |
| UACUAGCAAUAUUACGGAAU | -4.58 ± 0.39 | -2.95 ± 0.23 |
| UACUAGCAAUAUUACGGCAG | -0.408 ± 0.075 | 0.134 ± 0.12 |
| UACUAGCAAUAUUACGGCGA | -0.849 ± 0.11 | 0.621 ± 0.13 |
| UACUAGCAAUAUUACGGGCG | -0.0495 ± 0.11 | 0.375 ± 0.14 |
| UACUAGCAAUAUUACGGUGC | -3.29 ± 0.26 | -2.04 ± 0.31 |
| UACUAGCAAUAUUACGGUUA | -0.377 ± 0.1 | 0.35 ± 0.12 |
| UACUAGCAAUAUUACGGUUU | -1.41 ± 0.1 | -0.44 ± 0.12 |
| UACUAGCAAUAUUACGUAUA | -2.31 ± 0.29 | -1.19 ± 0.21 |
| UACUAGCAAUAUUACGUCAU | -2.66 ± 0.2 | -1.74 ± 0.13 |
| UACUAGCAAUAUUACGUCCG | -0.327 ± 0.12 | 0.11 ± 0.14 |
| UACUAGCAAUAUUACGUCGA | -2.11 ± 0.12 | -0.821 ± 0.12 |
| UACUAGCAAUAUUACGUGAA | -2.19 ± 0.11 | -1.18 ± 0.13 |
| UACUAGCAAUAUUACGUUUA | -2.47 ± 0.16 | -1.05 ± 0.12 |
| UAGAAGCAAUAUUACGACCA | -0.67 ± 0.094 | -0.157 ± 0.12 |
| UAGAAGCAAUAUUACGAUAU | -3.44 ± 0.25 | -2.19 ± 0.19 |
| UAGAAGCAAUAUUACGAUGU | -3.01 ± 0.18 | -1.69 ± 0.19 |
